# Source: patent US20190270826A1 (Janssen / Centocor, published 2019)
# T1: human IL1RAP on cells (endogenous) (human, UniProt Q9NPH3 21-570)
# T1 sequence (looked up): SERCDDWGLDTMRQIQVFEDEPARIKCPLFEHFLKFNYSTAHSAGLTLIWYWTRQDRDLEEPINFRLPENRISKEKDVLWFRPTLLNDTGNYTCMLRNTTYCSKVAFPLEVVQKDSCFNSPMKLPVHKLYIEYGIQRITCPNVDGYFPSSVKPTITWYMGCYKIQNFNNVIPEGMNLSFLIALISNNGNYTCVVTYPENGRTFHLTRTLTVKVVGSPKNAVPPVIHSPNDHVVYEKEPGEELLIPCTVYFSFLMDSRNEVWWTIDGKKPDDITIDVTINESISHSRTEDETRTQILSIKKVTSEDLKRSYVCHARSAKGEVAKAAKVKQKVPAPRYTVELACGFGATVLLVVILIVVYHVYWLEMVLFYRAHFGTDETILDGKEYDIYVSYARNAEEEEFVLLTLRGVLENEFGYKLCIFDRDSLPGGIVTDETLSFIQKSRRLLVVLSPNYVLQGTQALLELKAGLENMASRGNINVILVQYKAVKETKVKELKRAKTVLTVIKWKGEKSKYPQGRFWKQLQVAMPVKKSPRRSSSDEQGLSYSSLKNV
# T2: rat IL1RAP ECD displayed on HEK-293F cells (pDisplay) (rat, UniProt Q63621 21-367)
# T2 sequence: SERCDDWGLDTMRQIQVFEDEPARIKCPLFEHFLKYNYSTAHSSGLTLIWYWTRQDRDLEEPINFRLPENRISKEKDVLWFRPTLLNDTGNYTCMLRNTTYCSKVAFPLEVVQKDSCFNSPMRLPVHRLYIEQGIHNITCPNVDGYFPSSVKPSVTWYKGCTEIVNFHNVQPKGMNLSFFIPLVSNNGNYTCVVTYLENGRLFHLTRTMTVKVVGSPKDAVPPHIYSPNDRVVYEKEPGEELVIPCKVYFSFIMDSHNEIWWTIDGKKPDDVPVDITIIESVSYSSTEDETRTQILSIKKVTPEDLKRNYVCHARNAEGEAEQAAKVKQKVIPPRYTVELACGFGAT
# T3: mouse IL1RAP ECD displayed on HEK-293F cells (pDisplay) (mouse, UniProt Q61730 21-367)
# T3 sequence: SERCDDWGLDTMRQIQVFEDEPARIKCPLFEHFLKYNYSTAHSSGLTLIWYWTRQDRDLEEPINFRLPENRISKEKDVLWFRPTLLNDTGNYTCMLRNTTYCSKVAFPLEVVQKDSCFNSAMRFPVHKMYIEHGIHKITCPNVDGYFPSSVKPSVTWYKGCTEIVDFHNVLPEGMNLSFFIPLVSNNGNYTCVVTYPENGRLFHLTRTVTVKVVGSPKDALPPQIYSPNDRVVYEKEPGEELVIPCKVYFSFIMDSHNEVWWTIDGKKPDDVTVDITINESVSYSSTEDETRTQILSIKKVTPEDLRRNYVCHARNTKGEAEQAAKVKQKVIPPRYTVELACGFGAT
# T4: human FcγRIIb (human, UniProt P31994 43-217, limits assumed)
# T4 construct: GST-tagged
# T4 sequence (looked up): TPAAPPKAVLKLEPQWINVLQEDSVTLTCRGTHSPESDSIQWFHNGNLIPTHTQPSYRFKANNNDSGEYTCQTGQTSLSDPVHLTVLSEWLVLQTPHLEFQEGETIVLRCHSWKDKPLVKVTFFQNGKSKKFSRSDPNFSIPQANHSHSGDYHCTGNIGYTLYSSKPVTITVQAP
# B1: IC3B19 (bispecific antibody, human IgG4 S228P, kappa, lambda, F234A L235A)
# heavy 1: EVQLVESGGGLVQPGGSLRLSCAASGFTFNTYAMNWVRQAPGKGLEWVARIRSKYNNYATYYAASVKGRFTISRDDSKNSLYLQMNSLKTEDTAVYYCARHGNFGNSYVSWFAYWGQGTLVTVSSASTKGPSVFPLAPCSRSTSESTAALGCLVKDYFPEPVTVSWNSGALTSGVHTFPAVLQSSGLYSLSSVVTVPSSSLGTKTYTCNVDHKPSNTKVDKRVESKYGPPCPPCPAPEAAGGPSVFLFPPKPKDTLMISRTPEVTCVVVDVSQEDPEVQFNWYVDGVEVHNAKTKPREEQFNSTYRVVSVLTVLHQDWLNGKEYKCKVSNKGLPSSIEKTISKAKGQPREPQVYTLPPSQEEMTKNQVSLTCLVKGFYPSDIAVEWESNGQPENNYKTTPPVLDSDGSFLLYSKLTVDKSRWQEGNVFSCSVMHEALHNHYTQKSLSLSLGK
# light 1: QTVVTQEPSLTVSPGGTVTLTCRSSTGAVTTSNYANWVQQKPGQAPRGLIGGTNKRAPGTPARFSGSLLGGKAALTLSGVQPEDEAEYYCALWYSNLWVFGGGTKLTVLGQPKAAPSVTLFPPSSEELQANKATLVCLISDFYPGAVTVAWKADSSPVKAGVETTTPSKQSNNKYAASSYLSLTPEQWKSHRSYSCQVTHEGSTVEKTVAPTECS
# heavy 2: not shown
# light 2: DIQLTQSPSFLSASVGDRVTITCRASQGISSYLAWYQQKPGKAPKLLIYAASTLQSGVPSRFSGSGSGTEFTLTISSLQPEDFATYYCQQVNSYPLTFGGGTKVEIKRTVAAPSVFIFPPSDEQLKSGTASVVCLLNNFYPREAKVQWKVDNALQSGNSQESVTEQDSKDSTYSLSSTLTLSKADYEKHKVYACEVTHQGLSSPVTKSFNRGEC
# notes: IgG4-PAA, Fab arm exchange; also called IAPB57 x CD3B219; IL1RAP x CD3
# How the values were obtained:
# [1] = molecular target: T1, human IL1RAP on cells (endogenous); assay: cell-based or functional assay
# [2] = molecular target: T2, rat IL1RAP ECD displayed on HEK-293F …; assay: MSD cell binding, HEK-293F Rat clone 1 cells displaying rat IL1RAP ECD
# Method: (§1) Cells were immobilized and IL1RAP antibody samples were assayed in triplicate. Briefly, expression supernatants of purified IL1RAP antibodies were normalized to 10 μg/mL. 5000 cells per well were plated into a 384 well plate (MA6000, cat. L21XB, MSD) and allowed to adhere for 2 hr. Cells were then blocked with 20% FBS in PBS (Gibco) for 15 mins. Antibody supernatants were then added and left at RT for 1 hr. Cells were washed 3 times with PBS and a ruthenium labeled secondary antibody (Mesoscale Discovery) was then added at 2 μg/mL and incubated for 1 hour at room temperature. A further washing step was then applied and 35 μL per well of 2×MSD Read buffer T (surfactant free) was then added and incubated for 5-30 minutes for detection. Plates were then read using Sector Imager 2400 (MSD). Data was normalized to controls and graphed using GraphPad Prism Version 5. A positive binder was determined to be a hit with a signal 3× greater than parental cell line background.
# (§2) The MSD cell binding assay described in Example 4 was used to assess IL1RAP binding.
# [3] = molecular target: T3, mouse IL1RAP ECD displayed on HEK-293F …; assay: MSD cell binding, HEK-293F Mouse clone 5 cells displaying mouse IL1RAP ECD
# Method: as §1, §2
# human FcγRI = molecular target: T5, human FcγRI (human, UniProt P12314 16-292, limits assumed); assay: AlphaScreen competition, human FcγRI (n=1); displaced: biotinylated control mAb B21M hIgG1 AlaAla; pH 7.2
# T5 construct: GST-tagged, on glutathione acceptor beads; also called FcγRT [sic]
# T5 sequence (P12314 16-292 limits assumed): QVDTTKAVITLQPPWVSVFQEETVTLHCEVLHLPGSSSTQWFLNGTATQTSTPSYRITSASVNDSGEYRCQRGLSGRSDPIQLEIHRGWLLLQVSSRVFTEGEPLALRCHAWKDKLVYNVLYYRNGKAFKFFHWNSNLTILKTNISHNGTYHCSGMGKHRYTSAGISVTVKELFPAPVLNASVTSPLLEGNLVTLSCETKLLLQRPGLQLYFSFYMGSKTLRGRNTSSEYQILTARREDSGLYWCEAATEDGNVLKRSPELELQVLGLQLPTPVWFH
# Source text: (§3) Measurements were made using an AlphaScreen™ assay (Amplified Luminescent Proximity Homogeneous Assay (ALPHA), PerkinElmer, Wellesley, Mass.), a bead-based luminescent proximity assay. Laser excitation of a donor bead excites oxygen, which if sufficiently close to the acceptor bead generates a cascade of chemiluminescent events, ultimately leading to fluorescence emission at 520-620 nm.
# [4] = molecular target: T1, human IL1RAP on cells (endogenous); assay: cell-based or functional assay; remark: listed apart in the source
# [5] = molecular target: T1, human IL1RAP on cells (endogenous); assay: cell-based or functional assay; remark: listed apart in the source
# human FcγRIIb = molecular target: T4, human FcγRIIb; assay: AlphaScreen competition, human FcγRIIb (n=1); displaced: biotinylated control mAb B21M hIgG1 WT; pH 7.2
# Source text: as §3
binder,measurement,setting,value
B1,"Average EC50, SKNO-1 cytotoxicity in whole blood, 24 hour",[1],1.82 nM
same,"Average EC50, SKNO-1 cytotoxicity in whole blood, 48 hour",[1],1.4 nM
same,"EC50, SKNO-1 cytotoxicity in whole blood, donor 00201, 24 hour",[1],3.58 nM
same,"EC50, SKNO-1 cytotoxicity in whole blood, donor 00201, 48 hour",[1],0.703 nM
same,"EC50, SKNO-1 cytotoxicity in whole blood, donor 00263, 24 hour",[1],1.5 nM
same,"EC50, SKNO-1 cytotoxicity in whole blood, donor 00263, 48 hour",[1],0.768 nM
same,"EC50, SKNO-1 cytotoxicity in whole blood, donor 27050, 24 hour",[1],1.38 nM
same,"EC50, SKNO-1 cytotoxicity in whole blood, donor 27050, 48 hour",[1],3.36 nM
same,"EC50, SKNO-1 cytotoxicity in whole blood, donor 27060, 24 hour",[1],1.88 nM
same,"EC50, SKNO-1 cytotoxicity in whole blood, donor 27060, 48 hour",[1],1.3 nM
same,"EC50, SKNO-1 cytotoxicity in whole blood, donor 27067, 24 hour",[1],0.912 nM
same,"EC50, SKNO-1 cytotoxicity in whole blood, donor 27067, 48 hour",[1],0.647 nM
same,"EC50, SKNO-1 cytotoxicity in whole blood, donor 32771, 24 hour",[1],1.68 nM
same,"EC50, SKNO-1 cytotoxicity in whole blood, donor 32782, 48 hour",[1],1.62 nM
same,binding result,[2],no binding (tested: 100 µg/mL)
same,binding result,[3],no binding (tested: 100 µg/mL)
same,IC50 (read off the curve),human FcγRI,~90 nM
same,"EC50, caspase area/well AUC, Calu-3 with T cells, 72 h",[4],0.716 nM
same,"EC50, caspase area/well AUC, DU145 with T cells, 72 h",[4],0.445 nM
same,"EC50, caspase area/well AUC, H196 with T cells, 72 h",[4],0.019 nM
same,"EC50, caspase area/well AUC, H226 with T cells, 72 h",[4],0.134 nM
same,"EC50, caspase area/well AUC, H716 with T cells, 72 h",[4],0.004 nM
same,"EC50, caspase area/well AUC, H1975 with T cells, 72 h",[4],0.013 nM
same,"EC50, caspase area/well AUC, H2172 with T cells, 72 h",[4],0.039 nM
same,"EC50, caspase area/well AUC, H2228 with T cells, 72 h",[4],0.043 nM
same,"EC50, caspase area/well AUC, LNCAP with T cells, 72 h",[4],0.039 nM
same,"EC50, caspase area/well AUC, PC3 with T cells, 72 h",[4],0.102 nM
same,"EC50, caspase area/well AUC, Panc0213 with T cells, 72 h",[4],0.192 nM
same,"EC50, caspase area/well AUC, Panc0327 with T cells, 72 h",[4],0.181 nM
same,"EC50, caspase area/well AUC, SKMES-1 with T cells, 72 h",[4],0.031 nM
same,"EC50, caspase area/well AUC, SW1271 with T cells, 72 h",[4],0.078 nM
same,"mean EC50, T-cell activation, OCI-AML5 cells in whole blood, 48 h",[5],5.99 nM
same,"mean EC50, cytotoxicity of OCI-AML5 cells in whole blood, 48 h",[5],3.13 nM
same,binding result,human FcγRIIb,binds
